Measured values taken from PMC10802472 (bioRxiv, 2024).
Changes are numbered by the printed parent chain.

B1: ACAD11 K* mutant (kinase-inactive mouse ACAD11) (enzyme, UniProt Q80XL6 1-779, looked up)
chain: METDVTSDTVEVLPQHKFDLRSLEAYLNQHLPGFGSDSRAVLTVTQYRSGQSNPTFFLQKGSQAYVLRKKPPGSLLPKAHKIDREFKIQKALFSIGFPVAKPLLYCRDASVIGTEFYVMEHVQGRIFRDFSIPGVSSAERAAIYVSVAETLAWLHSLDIRSLKLDKYGTGVGYCKRQVSTWTKQYQASAHQSIPAMDQLSTWLMKNLPDSDSEECLVHGAFKLDNIVFHPKECRVIAVLDWELSTFGHPLTDLAHLSLFYYWPRTLPMINRGSHIPENTGIPLMEELISIYCHRRGIDPNLPNWNFFMALSFFKLAGISQGVYRRYLMGNNSSEDSFLTANTVQPLAETGLQLSKRTLRTTPPQADAKSQLFAQSRRGQEVLTRVKQFMKQHVFPAEKEVAEYYAQSGNSAEKWGHPLVIEKLKEMAKAEGLWNLFLPAVSGLSQVDYALIAEETGKCFFAPDVFNCQAPDTGNMEVLHLYGSEQQKKQWLEPLLRGDITSVFCMTEPNVSSSDATNIECTIQRDGGGYIVNGKKWWSSGAGNPKCKIAIVLGRTESPSASRHRQHSMILVPMDTPGVELIRPLSVFGYMDNMHGGHWEVHFNHVRVPASNLILGEGRGFEISQGRLGPGRIHHCMRTVGLAERILQIMCDRAVQREAFKKKLYEHEVVAHWIAKSRIAIEEIRLLTLKAAHSIDTLGSASARKEIAMIKVAAPKAVCKIADWAIQVHGGAGVSQDYPLANMYAIIRTLRLADGPDEVHLSAIAKMELQDQARRLTARM
B2: ACAD11 A* mutant (ACAD-inactive mouse ACAD11) (enzyme, UniProt Q80XL6 1-779, looked up)
chain: B1 chain with A220D, D753N

Target: the molecule itself
Assay: cryo-EM structure

| Protein | stoichiometry N |
| --- | --- |
| B1 | 4 |
| B2 | 4 |
